Measured values: PMC8042174
Substitutions are numbered along the chain they refer to. In names and notes the source's numbering stands.

B1: recombinant full-length NHERF1 (natural protein)
chain: MSADAAAGAPLPRLCCLEKGPNGYGFHLHGEKGKLGQYIRLVEPGSPAEKAGLLAGDRLVEVNGENVEKETHQQVVSRIRAALNAVRLLVVDPETDEQLQKLGVQVREELLRAQEAPGQAEPPAAAEVQGAGNENEPREADKSHPEQRELRPRLCTMKKGPSGYGFNLHSDKSKPGQFIRSVDPDSPAEASGLRAQDRIVEVNGVCMEGKQHGDVVSAIRAGGDETKLLVVDRETDEFFKKCRVIPSQEHLNGPLPVPFTNGEIQKENSREALAEAALESPRPALVRSASSDTSEELNSQDSPPKQDSTAPSSTSSSDPILDFNISLAMAKERAHQKRSSKRAPQMDWSKKNELFSNL
B2: recombinant N1P2-GAGA (natural protein)
chain: B1 chain with Y164A, F166A
B3: recombinant N1P1-GAGA (natural protein)
chain: B1 chain with Y24A, F26A
B4: pSer162-PDZ2 (133–300 aa) (domain or fragment)
chain: NENEPREADKSHPEQRELRPRLCTMKKGPSGYGFNLHSDKSKPGQFIRSVDPDSPAEASGLRAQDRIVEVNGVCMEGKQHGDVVSAIRAGGDETKLLVVDRETDEFFKKCRVIPSQEHLNGPLPVPFTNGEIQKENSREALAEAALESPRPALVRSASSDTSEELNSQ
modifications: phosphoserine at 162
B5: WT PDZ2 domain (133–300 aa) of NHERF1 (domain or fragment)
chain: B4 chain
B6: S162A-PDZ2 (133–300 aa) (domain or fragment)
chain: B4 chain with S30A
B7: NHERF1 PDZ1 domain (1-140 aa), isolated (domain or fragment)
chain: MSADAAAGAPLPRLCCLEKGPNGYGFHLHGEKGKLGQYIRLVEPGSPAEKAGLLAGDRLVEVNGENVEKETHQQVVSRIRAALNAVRLLVVDPETDEQLQKLGVQVREELLRAQEAPGQAEPPAAAEVQGAGNENEPREA

Target: FITC-labeled human GRK6A C-terminal 22 amino acid peptide, GRK6Act-22 (human)
Assay: fluorescence polarisation; fluorescence anisotropy, direct saturation binding in solution; recombinant protein titrated to fixed FITC-GRK6Act-22 (0.4–1.0 μM); PBS pH 7.4, 0.1% BSA, 1 mM DTT, 23 °C; quadratic fit

B1 and B2 are within 1.5-fold of each other in Kd: 5.3 µM for the first, 3.6 µM for the second.

First: B3
Second: B4
The Kd of the first is higher: over 100 µM for the first, 26.1 µM for the second. The second binds more tightly here.

B5 and B6 are within 1.5-fold of each other in Kd: 51.3 µM for the first, 43.4 µM for the second.

Target: FITC-labeled human GRK6A C-terminal 22 amino acid peptide, GRK6Act-22 (human)
Assay: fluorescence polarisation; fluorescence anisotropy saturation binding in solution; increasing amounts of recombinant protein added to a fixed concentration of FITC-labeled GRK6Act-22 (0.4-1.0 uM); PBS pH 7.4, 0.1% BSA, 1 mM DTT; 23 °C; 96-well format; quadratic fit

Binder B7 has a Kd of 6.6 µM.
